“And” between values parts separate entries of the source, which are not always exact repeats. Equal entries are not always repeated. Where two headings read alike, the source gives them in different places.
Tests used:
[1] = target: T1, S. aureus LukF (Staphylococcus aureus); test: method not stated at Table 8; BLI (Octet) is described in Example 4
[2] = target: T2, LukSF (Staphylococcus aureus); test: cell-based or functional assay
[3] = target: T3, HlgAB (Staphylococcus aureus, UniProt P0A074 30-309); test: cell-based or functional assay
T3 sequence 1: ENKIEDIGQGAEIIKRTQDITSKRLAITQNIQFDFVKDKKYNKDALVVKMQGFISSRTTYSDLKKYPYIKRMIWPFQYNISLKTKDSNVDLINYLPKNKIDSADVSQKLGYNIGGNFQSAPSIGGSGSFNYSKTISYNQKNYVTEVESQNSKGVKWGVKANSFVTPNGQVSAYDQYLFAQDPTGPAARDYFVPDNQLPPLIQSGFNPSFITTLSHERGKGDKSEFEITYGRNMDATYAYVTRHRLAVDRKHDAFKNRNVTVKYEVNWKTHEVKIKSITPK
T3 sequence 2: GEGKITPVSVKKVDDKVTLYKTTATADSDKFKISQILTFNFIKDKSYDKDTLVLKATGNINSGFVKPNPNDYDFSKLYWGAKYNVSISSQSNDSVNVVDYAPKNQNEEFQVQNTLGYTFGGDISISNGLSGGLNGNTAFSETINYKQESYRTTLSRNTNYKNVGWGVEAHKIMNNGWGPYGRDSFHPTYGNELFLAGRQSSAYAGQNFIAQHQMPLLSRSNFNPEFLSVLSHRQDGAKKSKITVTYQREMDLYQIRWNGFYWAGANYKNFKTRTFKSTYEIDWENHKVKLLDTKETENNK

[4] = target: T2, LukSF; test: cell-based or functional assay; remark: listed apart in the source
[5] = target: T3, HlgAB; test: cell-based or functional assay; remark: listed apart in the source
[6] = target: T2, LukSF; test: cell-based or functional assay; remark: listed apart in the source
[7] = target: T3, HlgAB; test: cell-based or functional assay; remark: listed apart in the source
[8] = target: T4, S. aureus HlgB (Staphylococcus aureus, UniProt P0A075 27-325)
T4 sequence: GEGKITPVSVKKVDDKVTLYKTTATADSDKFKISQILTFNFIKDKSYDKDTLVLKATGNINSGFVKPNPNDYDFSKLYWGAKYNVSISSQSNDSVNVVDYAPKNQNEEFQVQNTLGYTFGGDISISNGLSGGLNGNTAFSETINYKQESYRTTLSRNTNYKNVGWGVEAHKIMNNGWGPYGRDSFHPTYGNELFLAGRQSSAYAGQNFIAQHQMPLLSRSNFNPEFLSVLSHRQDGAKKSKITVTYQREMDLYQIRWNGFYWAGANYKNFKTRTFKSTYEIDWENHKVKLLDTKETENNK

[9] = target: T1, S. aureus LukF
[10] = target: T5, S. aureus LukD (Staphylococcus aureus, UniProt Q2FXB1 27-327)
T5 sequence: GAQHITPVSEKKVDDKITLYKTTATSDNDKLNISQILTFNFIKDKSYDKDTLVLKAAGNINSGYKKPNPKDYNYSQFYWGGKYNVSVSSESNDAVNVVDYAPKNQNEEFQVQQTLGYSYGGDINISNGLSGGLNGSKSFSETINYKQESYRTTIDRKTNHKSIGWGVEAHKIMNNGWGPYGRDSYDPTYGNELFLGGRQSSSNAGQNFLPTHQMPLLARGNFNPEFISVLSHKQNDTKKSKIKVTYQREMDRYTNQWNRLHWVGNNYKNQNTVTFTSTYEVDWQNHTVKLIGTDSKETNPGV

[11] = target: T2, LukSF; test: cell-based or functional assay; remark: listed apart in the source
[12] = target: T6, HlgCB (Staphylococcus aureus, UniProt Q07227 30-315); test: cell-based or functional assay
T6 sequence 1: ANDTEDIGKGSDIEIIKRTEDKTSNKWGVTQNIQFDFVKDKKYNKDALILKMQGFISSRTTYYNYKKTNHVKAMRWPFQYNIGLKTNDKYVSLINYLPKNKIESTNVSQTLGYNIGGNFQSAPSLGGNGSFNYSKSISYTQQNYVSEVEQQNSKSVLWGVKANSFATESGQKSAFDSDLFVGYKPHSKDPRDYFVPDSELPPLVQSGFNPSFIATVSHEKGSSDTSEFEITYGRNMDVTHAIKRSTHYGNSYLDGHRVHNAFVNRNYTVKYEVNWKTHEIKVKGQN
T6 sequence 2: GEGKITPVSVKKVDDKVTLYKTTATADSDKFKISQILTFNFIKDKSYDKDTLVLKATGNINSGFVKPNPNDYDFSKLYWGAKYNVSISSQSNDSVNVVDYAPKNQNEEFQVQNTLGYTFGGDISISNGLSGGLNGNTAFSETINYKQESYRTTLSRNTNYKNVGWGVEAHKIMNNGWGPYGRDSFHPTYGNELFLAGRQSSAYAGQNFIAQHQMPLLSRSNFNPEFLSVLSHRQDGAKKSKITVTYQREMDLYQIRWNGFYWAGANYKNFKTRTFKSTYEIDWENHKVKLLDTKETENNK

[13] = target: LukED (Staphylococcus aureus, UniProt O54081 29-314); test: cell-based or functional assay
[14] = target: T4, S. aureus HlgB; test: BLI (Octet384), antibody captured on anti-human IgG Fc biosensors, antigen in solution; dark sample
[15] = target: T1, S. aureus LukF; test: as above
[16] = target: T5, S. aureus LukD; test: as above
[17] = target: T4, S. aureus HlgB; test: BLI (Octet384), antibody captured on anti-human IgG Fc biosensors, antigen in solution; light-stressed sample
[18] = target: T1, S. aureus LukF; test: as above
[19] = target: T5, S. aureus LukD; test: as above

B1: SAN481-YTE (antibody)
heavy: QLQLVESGGGAVQPGRSLKLSCAASGFNFSTYAMHWVRQAPGRGLEWVAVTSFDGSNEYYIDSVKGRFTISRDNTKNTLYLQMTGLRVEDTALYFCARDEYTGGWYSVGYWGQGTLVTVSSASTKGPSVFPLAPSSKSTSGGTAALGCLVKDYFPEPVTVSWNSGALTSGVHTFPAVLQSSGLYSLSSVVTVPSSSLGTQTYICNVNHKPSNTKVDKRVEPKSCDKTHTCPPCPAPELLGGPSVFLFPPKPKDTLYITREPEVTCVVVDVSHEDPEVKFNWYVDGVEVHNAKTKPREEQYNSTYRVVSVLTVLHQDWLNGKEYKCKVSNKALPAPIEKTISKAKGQPREPQVYTLPPSREEMTKNQVSLTCLVKGFYPSDIAVEWESNGQPENNYKTTPPVLDSDGSFFLYSKLTVDKSRWQQGNVFSCSVMHEALHNHYTQKSLSLSPGK
light: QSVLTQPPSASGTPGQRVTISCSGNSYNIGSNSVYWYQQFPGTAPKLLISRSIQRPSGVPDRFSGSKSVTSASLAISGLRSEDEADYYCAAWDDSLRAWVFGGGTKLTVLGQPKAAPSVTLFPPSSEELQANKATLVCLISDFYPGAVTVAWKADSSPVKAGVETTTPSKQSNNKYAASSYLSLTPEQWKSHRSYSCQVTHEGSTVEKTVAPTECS
notes: also called QD1
Kd [1]: 14.8 pM | IC50 (LukSF) HL-60 [2]: 0.15 µg/mL | IC50 (HIgAB) HL-60 [3]: 0.54 µg/mL | IC50 (LukSF) HL-60; Dark sample [4]: 0.209 µg/mL | IC50 (LukSF) HL-60; Light sample [4]: 0.233 µg/mL | IC50 (HIgAB) HL-60; Dark sample [5]: 0.704 µg/mL | IC50 (HIgAB) HL-60; Light sample [5]: 0.821 µg/mL | IC50 Fold loss vs. WT (LukSF) [6]: 0.938 fold | IC50 for LukSF [6]: 0.15 µg/mL | IC50 Fold loss vs. WT (HIgAB) [7]: 0.95 fold | IC50 for HIgAB [7]: 0.54 µg/mL | Kd [8]: < 1 pM | koff [8]: < 1e-07 s⁻¹ | kon [8]: 240000 M⁻¹ s⁻¹ and 265000 M⁻¹ s⁻¹ | Kd [9]: 232 pM and 226 pM | koff [9]: 6.55e-05 s⁻¹ and 6.47e-05 s⁻¹ | kon [9]: 283000 M⁻¹ s⁻¹ and 287000 M⁻¹ s⁻¹ | Kd [10]: < 1 pM | koff [10]: < 1e-07 s⁻¹ | kon [10]: 277000 M⁻¹ s⁻¹ and 294000 M⁻¹ s⁻¹

B2: SAN481-SYT-YTE (antibody, V domains shown)
VH: QLQLVESGGGAVQPGRSLKLSCAASGFTFSTYAMHWVRQAPGRGLEWVAVTSFDGSNEYYIDSVKGRFTISRDNTKNTLYLQMTGLRVEDTALYFCARDEYTGGWYSVGYWGQGTLVTVSS
VL: QSVLTQPPSASGTPGQRVTISCSGSSYNIGSNYVYWYQQFPGTAPKLLISRSIQRPSGVPDRFSGSKSVTSASLAISGLRSEDEADYYCAAWDDSLRAWVFGGGTKLTVLG
notes: also called QD5
Kd [1]: 101 pM | IC50 (read off the curve) [11]: ~0.4 µg/mL | IC50 (read off the curve) [12]: ~2 µg/mL | IC50 (read off the curve) [13]: ~4 µg/mL | IC50 (LukSF) HL-60 [2]: 0.16 µg/mL | IC50 (HIgAB) HL-60 [3]: 0.54 µg/mL | IC50 (LukSF) HL-60; Dark sample [4]: 0.163 µg/mL | IC50 (LukSF) HL-60; Light sample [4]: 0.184 µg/mL | IC50 (HIgAB) HL-60; Dark sample [5]: 0.576 µg/mL | IC50 (HIgAB) HL-60; Light sample [5]: 0.645 µg/mL | Kd [14]: 19.1 pM | koff [14]: 4.88e-06 s⁻¹ | kon [14]: 255000 M⁻¹ s⁻¹ | Kd [15]: 101 pM | koff [15]: 3.69e-05 s⁻¹ | kon [15]: 365000 M⁻¹ s⁻¹ | Kd [16]: < 1 pM | koff [16]: < 1e-07 s⁻¹ | kon [16]: 279000 M⁻¹ s⁻¹ | Kd [17]: < 1 pM | koff [17]: < 1e-07 s⁻¹ | kon [17]: 244000 M⁻¹ s⁻¹ | Kd [18]: < 1 pM | koff [18]: < 1e-07 s⁻¹ | kon [18]: 257000 M⁻¹ s⁻¹ | Kd [19]: < 1 pM | koff [19]: < 1e-07 s⁻¹ | kon [19]: 263000 M⁻¹ s⁻¹ | IC50 Fold loss vs. WT (LukSF) [6]: 1.01 fold | IC50 for LukSF [6]: 0.162 µg/mL | IC50 Fold loss vs. WT (HIgAB) [7]: 0.951 fold | IC50 for HIgAB [7]: 0.54 µg/mL

— patent US20200109190A1 (AstraZeneca / MedImmune, published 2020)
